Measured values taken from PMC11869295, “Molecular Principles of Proton-Coupled Quinone Reduction in the Membrane-Bound Superoxide Oxidase” (Journal of the American Chemical Society, 2025).

B1: superoxide oxidase (SOO); CybB (Escherichia coli K-12) (protein)
chain: MENKYSRLQISIHWLVFLLVIAAYCAMEFRGFFPRSDRPLINMIHVSCGISILVLMVVRLLLRLKYPTPPIIPKPKPMMTGLAHLGHLVIYLLFIALPVIGLVMMYNRGNPWFAFGLTMPYASEANFERVDSLKSWHETLANLGYFVIGLHAAAALAHHYFWKDNTLLRMMPRKRS
notes: full length with C-terminal 8xHis tag, expressed in E. coli BL21(DE3) pLysS, membrane protein purified in detergent (OGNG, assayed in DDM), two b hemes
B2: superoxide oxidase (SOO); CybB (Escherichia coli K-12; D164E) (protein)
chain: MENKYSRLQISIHWLVFLLVIAAYCAMEFRGFFPRSDRPLINMIHVSCGISILVLMVVRLLLRLKYPTPPIIPKPKPMMTGLAHLGHLVIYLLFIALPVIGLVMMYNRGNPWFAFGLTMPYASEANFERVDSLKSWHETLANLGYFVIGLHAAAALAHHYFWKENTLLRMMPRKRS
notes: as for B1
B3: superoxide oxidase (SOO); CybB (Escherichia coli K-12; D164A) (protein)
chain: MENKYSRLQISIHWLVFLLVIAAYCAMEFRGFFPRSDRPLINMIHVSCGISILVLMVVRLLLRLKYPTPPIIPKPKPMMTGLAHLGHLVIYLLFIALPVIGLVMMYNRGNPWFAFGLTMPYASEANFERVDSLKSWHETLANLGYFVIGLHAAAALAHHYFWKANTLLRMMPRKRS
notes: as for B1

Legend:
Assay in all cases: WST-1 competition assay, decrease of formazan formation rate on SOO addition
[1] = target: T1, superoxide oxidase (SOO); CybB (Escherichia coli, UniProt P0ABE5, H158F); format: biochemical; settings: apparent Km; forward reaction, superoxide from xanthine oxidase/hypoxanthine, bo3 oxidase regenerates quinone, 50 nM SOO, 100 mM sodium phosphate pH 8, 0.05% DDM; range printed jointly for H158A and H
T1 construct: full length with C-terminal 8xHis tag, expressed in E. coli BL21(DE3) pLysS, membrane protein purified in detergent (OGNG, assayed in DDM), two b hemes
T1 sequence (P0ABE5 whole entry H158F): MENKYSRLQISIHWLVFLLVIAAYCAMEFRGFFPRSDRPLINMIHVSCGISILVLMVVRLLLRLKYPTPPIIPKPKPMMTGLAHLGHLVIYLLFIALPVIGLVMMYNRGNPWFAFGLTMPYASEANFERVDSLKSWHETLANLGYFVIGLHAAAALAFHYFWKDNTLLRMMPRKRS

[2] = target: T2, superoxide oxidase (SOO); CybB (Escherichia coli, UniProt P0ABE5, H158A); format: biochemical; settings: apparent Km; forward reaction, superoxide from xanthine oxidase/hypoxanthine, bo3 oxidase regenerates quinone, 50 nM SOO, 100 mM sodium phosphate pH 8, 0.05% DDM; range printed jointly for H158A and H
T2 construct: full length with C-terminal 8xHis tag, expressed in E. coli BL21(DE3) pLysS, membrane protein purified in detergent (OGNG, assayed in DDM), two b hemes
T2 sequence (P0ABE5 whole entry H158A): as the sequence (P0ABE5 whole entry H158F) above, with F158A counted along it

[3] = substrate: COC1=C(OC)C(=O)C(C/C=C(\C)CCC=C(C)C)=C(C)C1=O; format: biochemical, Escherichia coli; settings: apparent Km, forward reaction, superoxide from xanthine oxidase/hypoxanthine, bo3 oxidase regenerates quinone, 50 nM SOO, 100 mM sodium phosphate pH 8, 0.05% DDM

Molecule	Km [1] [µM]	Km [2] [µM]	Km [3] [µM]
COC1=C(OC)C(=O)C(C/C=C(\C)CCC=C(C)C)=C(C)C1=O [ubiquinone Q2]	8 to 13	8 to 13	–
B1	–	–	0.4
B2	–	–	3
B3	–	–	5
